B1: Protein P-30, P22069 (parent)
chain: QDWLTFQKKHITNTRDVDCDNIMSTNLFHCKDKNTFIYSRPEPVKAICKGIIASKNVLTTSEFYLSDCNVTSRPCKYKLKKSTNKFCVTCENQAPVHFVGVGSC

Variants of: B1
Details: Lithobates pipiens; pH 2; 25 °C; Thermal; DSC; MES 100 mM; reversible: yes; structure 1ONC; whole UniProt chain shown

Variant | ddG of mutation (higher = less stable) | unfolding free energy
M23L | 2.51 kcal/mol | 6.33 kcal/mol

Same assay, conditions: Lithobates pipiens; pH 2; Thermal; DSC; MES 100 mM; reversible: yes; structure 1ONC; whole UniProt chain shown

Variant | Tm | change of melting temperature, mutant - wild type (higher = more stable) | heat capacity change of unfolding | unfolding enthalpy (calorimetric) | unfolding enthalpy (van 't Hoff)
M23L | 62.2 °C | -7.3 °C | 1.24 kcal/mol/K | 84.8 kcal/mol | 88.4 kcal/mol

Same assay, conditions: Lithobates pipiens; pH 2.5; 25 °C; Thermal; DSC; MES 100 mM; reversible: yes; structure 1ONC; whole UniProt chain shown

Variant | ddG of mutation (higher = less stable) | unfolding free energy
M23L | 2.29 kcal/mol | 7.24 kcal/mol

Same assay, conditions: Lithobates pipiens; pH 2.5; Thermal; DSC; MES 100 mM; reversible: yes; structure 1ONC; whole UniProt chain shown

Variant | Tm | change of melting temperature, mutant - wild type (higher = more stable) | heat capacity change of unfolding | unfolding enthalpy (calorimetric) | unfolding enthalpy (van 't Hoff)
M23L | 65.8 °C | -6.8 °C | 1.51 kcal/mol/K | 90.8 kcal/mol | 87.3 kcal/mol

Same assay, conditions: Lithobates pipiens; pH 3; 25 °C; Thermal; DSC; MES 100 mM; reversible: yes; structure 1ONC; whole UniProt chain shown

Variant | ddG of mutation (higher = less stable) | unfolding free energy
M23L | 2.77 kcal/mol | 8.03 kcal/mol

Same assay, conditions: Lithobates pipiens; pH 3; Thermal; DSC; MES 100 mM; reversible: yes; structure 1ONC; whole UniProt chain shown

Variant | Tm | change of melting temperature, mutant - wild type (higher = more stable) | heat capacity change of unfolding | unfolding enthalpy (calorimetric) | unfolding enthalpy (van 't Hoff)
M23L | 68.9 °C | -7.6 °C | 1.39 kcal/mol/K | 95.6 kcal/mol | 94.7 kcal/mol

Same assay, conditions: Lithobates pipiens; pH 3.5; 25 °C; Thermal; DSC; MES 100 mM; reversible: yes; structure 1ONC; whole UniProt chain shown

Variant | ddG of mutation (higher = less stable) | unfolding free energy
M23L | 2.89 kcal/mol | 9.32 kcal/mol

Same assay, conditions: Lithobates pipiens; pH 3.5; Thermal; DSC; MES 100 mM; reversible: yes; structure 1ONC; whole UniProt chain shown

Variant | Tm | change of melting temperature, mutant - wild type (higher = more stable) | heat capacity change of unfolding | unfolding enthalpy (calorimetric) | unfolding enthalpy (van 't Hoff)
M23L | 74.7 °C | -6.9 °C | 1.48 kcal/mol/K | 103 kcal/mol | 99.8 kcal/mol

Same assay, conditions: Lithobates pipiens; pH 4; Thermal; DSC; MES 100 mM; reversible: yes; structure 1ONC; whole UniProt chain shown

Variant | Tm | change of melting temperature, mutant - wild type (higher = more stable) | heat capacity change of unfolding | unfolding enthalpy (calorimetric) | unfolding enthalpy (van 't Hoff)
M23L | 80.7 °C | -6.1 °C | 1.34 kcal/mol/K | 112 kcal/mol | 115 kcal/mol

Same assay, conditions: Lithobates pipiens; pH 5; 25 °C; Thermal; DSC; MES 100 mM; reversible: yes; structure 1ONC; whole UniProt chain shown

Variant | ddG of mutation (higher = less stable) | unfolding free energy
M23L | 2.65 kcal/mol | 11.5 kcal/mol

Same assay, conditions: Lithobates pipiens; pH 5; Thermal; DSC; MES 100 mM; reversible: yes; structure 1ONC; whole UniProt chain shown

Variant | Tm | change of melting temperature, mutant - wild type (higher = more stable) | heat capacity change of unfolding | unfolding enthalpy (calorimetric) | unfolding enthalpy (van 't Hoff)
M23L | 82.3 °C | -6 °C | 1.43 kcal/mol/K | 115 kcal/mol | 117 kcal/mol

Same assay, conditions: Lithobates pipiens; pH 6; 25 °C; GdnHCl; CD; MES 100 mM; reversible: yes; structure 1ONC; whole UniProt chain shown

Variant | ddG of mutation (higher = less stable) | denaturant m value | denaturant midpoint (higher = more stable) | unfolding free energy
M23L | 3.06 kcal/mol | 3.25 kcal/mol/M | 3.4 M | 11 kcal/mol

Same assay, conditions: Lithobates pipiens; pH 6; 25 °C; GdnHCl; Fluorescence; MES 100 mM; reversible: yes; structure 1ONC; whole UniProt chain shown

Variant | ddG of mutation (higher = less stable) | denaturant m value | denaturant midpoint (higher = more stable) | unfolding free energy
M23L | 2.63 kcal/mol | 3.3 kcal/mol/M | 3.4 M | 11.2 kcal/mol

Same assay, conditions: Lithobates pipiens; pH 6; 25 °C; Thermal; DSC; MES 100 mM; reversible: yes; structure 1ONC; whole UniProt chain shown

Variant | ddG of mutation (higher = less stable) | unfolding free energy
M23L | 2.65 kcal/mol | 11.5 kcal/mol

Same assay, conditions: Lithobates pipiens; pH 6; Thermal; DSC; MES 100 mM; reversible: yes; structure 1ONC; whole UniProt chain shown

Variant | Tm | change of melting temperature, mutant - wild type (higher = more stable) | heat capacity change of unfolding | unfolding enthalpy (calorimetric) | unfolding enthalpy (van 't Hoff)
M23L | 82.8 °C | -5.9 °C | 1.29 kcal/mol/K | 115 kcal/mol | 112 kcal/mol

Same assay, conditions: Lithobates pipiens; pH 7; 25 °C; Thermal; DSC; MES 100 mM; reversible: yes; structure 1ONC; whole UniProt chain shown

Variant | ddG of mutation (higher = less stable) | unfolding free energy
M23L | 2.22 kcal/mol | 11.5 kcal/mol

Same assay, conditions: Lithobates pipiens; pH 7; Thermal; DSC; MES 100 mM; reversible: yes; structure 1ONC; whole UniProt chain shown

Variant | Tm | change of melting temperature, mutant - wild type (higher = more stable) | heat capacity change of unfolding | unfolding enthalpy (calorimetric) | unfolding enthalpy (van 't Hoff)
M23L | 82 °C | -5.8 °C | 1.46 kcal/mol/K | 115 kcal/mol | 118 kcal/mol

Same assay, conditions: Lithobates pipiens; pH 8; 25 °C; Thermal; DSC; MES 100 mM; reversible: yes; structure 1ONC; whole UniProt chain shown

Variant | ddG of mutation (higher = less stable) | unfolding free energy
M23L | 2.39 kcal/mol | 10.6 kcal/mol

Same assay, conditions: Lithobates pipiens; pH 8; Thermal; DSC; MES 100 mM; reversible: yes; structure 1ONC; whole UniProt chain shown

Variant | Tm | change of melting temperature, mutant - wild type (higher = more stable) | heat capacity change of unfolding | unfolding enthalpy (calorimetric) | unfolding enthalpy (van 't Hoff)
M23L | 79.1 °C | -6.3 °C | 1.36 kcal/mol/K | 110 kcal/mol | 109 kcal/mol
